The record followed here is patent publication US20020164690A1.

The target in assay [1] is T1, gp130 on PC12D cells (UniProt P40190).
T1 sequence (looked up): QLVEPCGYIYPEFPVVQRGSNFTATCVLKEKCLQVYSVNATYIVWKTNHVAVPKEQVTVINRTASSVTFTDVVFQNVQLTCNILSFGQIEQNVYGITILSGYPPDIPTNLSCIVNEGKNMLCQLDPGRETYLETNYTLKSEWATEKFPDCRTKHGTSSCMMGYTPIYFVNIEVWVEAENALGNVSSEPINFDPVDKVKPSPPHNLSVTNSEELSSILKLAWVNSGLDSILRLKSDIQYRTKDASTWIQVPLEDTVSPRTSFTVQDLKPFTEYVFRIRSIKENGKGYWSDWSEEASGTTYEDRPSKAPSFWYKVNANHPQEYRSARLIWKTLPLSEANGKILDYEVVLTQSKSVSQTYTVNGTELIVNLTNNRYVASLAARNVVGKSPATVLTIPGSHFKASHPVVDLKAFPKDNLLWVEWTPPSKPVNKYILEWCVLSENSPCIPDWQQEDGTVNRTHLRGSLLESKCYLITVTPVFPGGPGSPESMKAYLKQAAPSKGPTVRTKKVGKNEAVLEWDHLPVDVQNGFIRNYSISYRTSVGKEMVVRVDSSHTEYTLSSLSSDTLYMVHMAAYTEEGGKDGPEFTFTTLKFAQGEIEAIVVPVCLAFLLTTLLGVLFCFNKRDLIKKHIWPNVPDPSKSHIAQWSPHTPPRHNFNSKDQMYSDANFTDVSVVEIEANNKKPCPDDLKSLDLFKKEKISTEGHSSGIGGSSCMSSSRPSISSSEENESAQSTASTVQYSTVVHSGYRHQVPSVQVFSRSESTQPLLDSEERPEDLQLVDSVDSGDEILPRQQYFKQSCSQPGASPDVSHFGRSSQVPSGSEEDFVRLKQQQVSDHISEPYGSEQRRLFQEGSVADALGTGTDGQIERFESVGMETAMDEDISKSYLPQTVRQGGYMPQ
The assay can be described thus: cell-based or functional assay.

In assay [2] the target is human 125I-IL6 (human) (UniProt P05231). The assay can be described thus: dissociation: 20 pM 125I-IL-6 preincubated with 500 pM antibody for 20 hours, chased with 20 nM cold IL-6, precipitation with Protein G-Sepharose.
Chain of human 125I-IL6 (human) (P05231 30-212 limits assumed): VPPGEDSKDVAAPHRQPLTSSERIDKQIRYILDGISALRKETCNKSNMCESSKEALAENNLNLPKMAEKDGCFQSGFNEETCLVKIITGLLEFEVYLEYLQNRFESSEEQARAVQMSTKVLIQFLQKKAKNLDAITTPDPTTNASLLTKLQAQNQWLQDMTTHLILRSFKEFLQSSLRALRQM
For assay [3], the target named is recombinant human IL-6 (human) (UniProt P05231). The experiment in a line: cell-based or functional assay.
Chain of recombinant human IL-6 (human) (P05231 30-212 limits assumed): as above

Bounds are passed on as bounds.

B1: Rat CNTF (ligand, UniProt P20294 1-200, looked up)
chain: MAFAEQTPLTLHRRDLCSRSIWLARKIRSDLTALMESYVKHQGLNKNINLDSVDGVPVASTDRWSEMTEAERLQENLQAYRTFQGMLTKLLEDQRVHFTPTEGDFHQAIHTLMLQVSAFAYQLEELMVLLEQKIPENEADGMPATVGDGGLFEKKLWGLKVLQELSQWTVRSIHDLRVISSHQMGISALESHYGAKDKQM
In assay [1], B1 gave a tyrosine phosphorylation of gp130 in PC12D cells in response to IL-6 of 2 nM; a tyrosine phosphorylation of gp130 in PC12D cells in response to IL-6 and sIL-6Rα of 8 nM.

B2: anti-IL-6 monoclonal neutralizing antibody B-E8 (antibody, from another filing, V domains shown)
VH: QVTLKESGPGILKPSQTLSLTCSFSGFSLSTSGMGVGWIRQPSGKGLEWLAHIWWDDDKYYNPSLKSQLTISKDTSRNQVFLKITSVDTADTATYYCARSYDDYLYYALDYWGQGTSVTVSS
VL: DIVMTQSPATLSVTPGDRVSLSCRASQSISDYLHWYQQKSHESPRLLIKSVSQSISGIPSRFSGSGSGSDFTLSINSVEPEDVGVYYCQNGHSFPLTFGAGTKLELK
With B2, the percent of the counts still associated after three days in assay [2] was less than 5%. Also, the IL-6-dependent proliferation of XG-1 cells (50 pg/ml IL-6): molar excess that blocks completely (fold molar excess over IL-6) in assay [3] was determined as 10.
